# Test results: patent US20260234247A1
# Biological target: Cynomolgus LILRB2 on CHOK1 cells (cynomolgus)
# Experiment: flow cytometry on CHOK1-cyno LILRB2 cells
row,Binder,EC50
1,"LK-RB2-42 (antibody, human IgG4 S228P, kappa, V domains shown) VH: EFQLQQSGPELVKPGASVKISCKASGYSFTDYNMNWVKQSNGKSLDWIGIINPKYGTTAYNQKLRDKATLTVDQSSSTAYMQLNSLTSEDSAVYYCASLNWDEGFAYWGQGTLVTVSP VL: DVLMTQTPLSLPVSLGDQASISCRSSQSIVHSNGNTYLEWYLQKPGQPPKLLIYKVSNRFSGVPERFSGSGSGTDFTLKINRVEAEDLGVYYCFQGSLVPPTFGGGTKLEIKR",2.86 nM
2,"LK-RB2-34 (antibody, human IgG4 S228P, kappa, V domains shown) VH: DVKVVESGGGLVKPGGSLKLSCAASGFTFSSYSMSWVRQTPEKRLEWVATISTGSSYTYYSDSVKGRFTISRDNAKNTLYLQMSSLKSEDTAMFYCTRGSMDYWGQGTSVTVSS VL: DILMTQSPSSMSVSLGDTVSITCHASQDISSNIGWLQQKPGNSFKGLIYHGINLEDGVPSRFSGSGSGADYSLTISSLESEDFADYYCVQYAQFPYTFGGGTKLEIKR",2.3 nM
3,"LK-RB2-32 (antibody, human IgG4 S228P, kappa, V domains shown) VH: DVQLQESGPGLVKPSQSLSLTCSVTGYSITSGYYWNWIRQFPGNKLEWMGYISFDGSNHYNPSLRNRISITRDTFKNQFFLKLNSVTTEDTATFYCTRRDYNWFAYWGQGTLVTVSA VL: DIVLTQSPVTLSVTPGDSVSLSCRASQNINKNLHWYQQRSHESPRLLIKYVSQSISGIPSRFSGSGSGTDFTLSINSVETEDFGMYFCQQSNSWPLTFGAGTKLELRR",5.72 nM

# Second part, the binder after the results:
row,EC50,Binder
1,2.09 nM,"LK-RB2-29 (antibody, human IgG4 S228P, kappa, V domains shown) VH: QVQLQQSGAELARPGASVKLSCKASGYTFTSYWMQWVKQRPGQGLEWIGAIYPGDGDTRYTQKFKGKATLTADKSSSTAYMQLSSLASEDSAVYYCARGYYGSSYADYFDYWGQGTTLTVSS VL: DIQMTQSPASLSASVGETVTITCRASGNIHNYLAWYQQKQGKSPQLLVYNAKTLADGVPSRFSGSGSGTQYSLKINSLQPEDFGSYYCQHFWSTPPTFGGGTKLEIKR"
2,1.59 nM,"LK-RB2-31 (antibody, human IgG4 S228P, kappa, V domains shown) VH: QVQLQQPGAELVKPGASMKLSCKASGYTFTTYYMYWVKQRPGLGLEWIGGINPSNGGTTFNEKFKNKATLTVDKSSSTAYMQLRSLTSEDSAVYYCTRWRFFDVWGAGTTVTVSS VL: SIVMTQTPEFLLVSAGDRVTITCKASQSVNNDVAWFQQKPGQSPKLLIYYASNRYTGVPDRFTGSGYGTDFTFTISTVQAEDLAIYFCQQDYSSPPTFGGATKLEIKR"
3,1.5 nM,"LK-RB2-41 (antibody, human IgG4 S228P, kappa, V domains shown) VH: EVQLQLSGPELVKPGASVKMSCKASGYTFTDYNMHWVKQSHGKSLEWIGYINPNNGGTTYNQKFKGKATLTVNKSSSTAYMELRSLTSEDSAVYYCARAPYYGSSYLLAYWGQGTLVTVSA VL: DIVMTQSHKFMSTSVGDRVSITCKASQDVSTAVAWYQQKPGQSPKLLIYSASYRYTGVPDRFTGSGSGTDFTFTISSVQAEDLAIYYCQQHYSIPWTFGGGTKLEIKR"
4,1.04 nM,"LK-RB2-30 (antibody, human IgG4 S228P, kappa, V domains shown) VH: EVQLVESGGGLVQPGGSLKLSCAASGFTFNTDGMSWVRQTPDKRLELVAIINSNGGSTYYPDSVKGRFTISRDNAKNTLYLQMSSLKSEDTAMYYCAREGSYGSWFAYWGQGTLVTVSA VL: DIQMTQSPASLSVSVGETVTITCRASENINNNLAWYHQKQGKSPQLLVYAATNLADGVPSRFSGSGSGTQYSLKINSLQSEDFGSYYCQHFWGTPFTFGGGTKLEIKR"

# Biological target: Rhesus LILRB1 (NP_001035762.2) on CHOK1 cells (rhesus macaque) (UniProt F7H3G7)
# Experiment: flow cytometry on CHOK1-rhesus LILRB1 (NP_001035762.2) cells
row,EC50,Binder
1,1.08 nM,"LK-RB1-5 (antibody, human IgG4 S228P, kappa, V domains shown) VH: QVQLQQPGAELVKPGASVKLSCKASGYTFTDFWIHWVKQRPGQGLEWIGMIHPNSGSTNFNEKFRAKATLTVDKSSSTAYMRLSSLTSEDSAVYYCARSGDGYSNPMDYWGQGTSVTVSS VL: QIVLSQSPAILSASPGEKVTLTCRASSSVSYMHWYQQKPGSSPKPWIYATSNLASGVPVRFSGSGSGTSYSLTISRMQTEDAATYYCQQWRRSPYTFGGGTKLEIKR"

# Biological target: Rhesus LILRB1 (NP_001035762.2) protein (rhesus macaque) (UniProt F7H3G7)
# Experiment: ELISA on rhesus LILRB1 (NP_001035762.2) protein
row,EC50,Binder
1,0.08 nM,"LK-RB1-11 (antibody, human IgG4 S228P, kappa, V domains shown) VH: QVTLKESGPGILQPSQTLSLTCSFSGFSLKTSGMSVGWIRQPSGKGLEWLAHIWWNDDKYYNPVLKGRLTISKDTSNNLVFLKIASVVSTDTATYYCVRYGNSHGYWYFDVWGTGTTVTVSS VL: NIVLTQSPASLAVSLGQRATISCRASESVDSYGNNFIHWYQQKPGQPPKVLIYYASNLEAGVPARFSGSGSRTDFTLTIDPVEAEDAATYYCQQNNEDPYTFGGGTKLEIER"
2,0.05 nM,"LK-RB1-5 (antibody, human IgG4 S228P, kappa, V domains shown) VH: QVQLQQPGAELVKPGASVKLSCKASGYTFTDFWIHWVKQRPGQGLEWIGMIHPNSGSTNFNEKFRAKATLTVDKSSSTAYMRLSSLTSEDSAVYYCARSGDGYSNPMDYWGQGTSVTVSS VL: QIVLSQSPAILSASPGEKVTLTCRASSSVSYMHWYQQKPGSSPKPWIYATSNLASGVPVRFSGSGSGTSYSLTISRMQTEDAATYYCQQWRRSPYTFGGGTKLEIKR"
